Positions count from the first letter of the chain named. In names and notes the source's numbering stands. Where no end group is shown, it is not given here. Me3 = trimethyl
Assays:
[1] = biological target: FA-J3NCZ, FLAG:HA-tagged JmjN-JmjC-zinc finger region of JMJ703 (amino acids 113 to 700) (rice) (UniProt Q53WJ1); experiment: SPR; J3NCZ (FA-J3NCZ) with different concentrations of peptide; set-up for this protein not told in the methods
[2] = biological target: c-JMJ703, catalytic core domain of JMJ703 (amino acids 139 to 498) (rice) (UniProt Q53WJ1); experiment: SPR; BIAcore 3000, 25°C; c-JMJ703 amine-coupled to a CM5 chip; peptides injected at various concentrations at 10 µL/min for 2 min in 10 mM HEPES pH 7.5, 150 mM NaCl, 0.005% Tween20; reference flow cell subtracted
[3] = biological target: T1, c-JMJ703, catalytic core domain of JMJ703 (amino acids 139 to 498) (rice, UniProt Q53WJ1 139-498); experiment: as above; details: both partners purified
T1 construct: JMJ703, rice JmjC domain-containing histone H3K4 demethylase; amino acids 139 to 498, covering the JmjN domain (A139-K199), long beta-hairpin (D200-T271), mixed domain (L272-V377) and JmjC domain (L378-A498); Cloned into pET-28a with BamHI and XhoI; also called J3NC; catalytic core of JMJ703; source: E. coli Rosetta (DE3), purified (Ni-NTA, thrombin cleavage, Hitrap Q anion exchange)

[4] = biological target: T2, FA-J3NCZ, FLAG:HA-tagged JmjN-JmjC-zinc finger region of JMJ703 (amino acids 113 to 700) (rice, UniProt Q53WJ1 113-700); experiment: SPR; J3NCZ (FA-J3NCZ) with different concentrations of peptide; set-up for this protein not told in the methods; details: both partners purified
T2 construct: JMJ703, rice; JmjN-JmjC-zinc finger region between amino acids 113 and 700; the only production of J3NCZ that the methods tell is the FLAG:HA-tagged one from tobacco cells (vector pFA121); source: tobacco leaf cells (Agrobacterium infection), purified with Anti-FLAG M2 magnetic beads
T2 sequence (looked up): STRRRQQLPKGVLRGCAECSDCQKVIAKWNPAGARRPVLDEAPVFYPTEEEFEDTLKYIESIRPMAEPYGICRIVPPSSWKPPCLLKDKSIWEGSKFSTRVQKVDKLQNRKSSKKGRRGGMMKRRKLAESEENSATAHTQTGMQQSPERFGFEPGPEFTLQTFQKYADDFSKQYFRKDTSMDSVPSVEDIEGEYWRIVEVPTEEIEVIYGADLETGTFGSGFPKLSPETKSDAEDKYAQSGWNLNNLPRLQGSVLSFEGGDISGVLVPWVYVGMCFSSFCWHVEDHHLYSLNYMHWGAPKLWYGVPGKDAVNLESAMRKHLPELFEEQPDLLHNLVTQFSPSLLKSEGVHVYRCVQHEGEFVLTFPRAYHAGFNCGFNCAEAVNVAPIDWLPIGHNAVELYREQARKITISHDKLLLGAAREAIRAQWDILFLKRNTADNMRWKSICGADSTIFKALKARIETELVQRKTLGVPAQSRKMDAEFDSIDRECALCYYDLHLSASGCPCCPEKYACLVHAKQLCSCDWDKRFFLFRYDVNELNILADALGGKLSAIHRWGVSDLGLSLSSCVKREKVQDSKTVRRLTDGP

H3K4me2 = experiment: H3K4 demethylation assay in tobacco cells of JMJ703 substitution mutants, H3K4me2; format: cell-based; details: mutant expressed transiently in tobacco cells, immunostaining of nuclei, at least 30 nuclei per transfection
Experimental: (§1) The cDNA fragment of the J3NCZ region was amplified using primers FAJ3NCZ-F and FAJ3NCZ-R and then cloned into pFA121 vector modified from pBI121 (GenBank: AF485783.1), in which GUS was replaced by 2×FLAG∶2×HA tag. The pFA121-J3NCZ plasmid was transferred into Agrobacterium tumefaciens strain EHA105 cells for tobacco infection with the help of Agrobacterium cells harboring P19 plasmids. For in vivo histone demethylation assay, tobacco infection and nuclei isolation were performed as previously described. The immunostaining protocol was modified from http://sites.bio.indiana.edu/~pikaardlab. Briefly, the nucleus solution was placed on a poly-lysine coated slide, air dried, and then refixed with 4% formaldehyde in KPBS (1.28 M NaCl, 20 mM KCl, 80 mM Na2HPO4, 20 mM KH2PO4, pH7.2) containing 1% Triton X-100 for 20 min. After 3 washes with KPBS-1% Triton, slides were blocked with blocking solution (1% BSA in KPBS-1% Triton) and incubated at 37°C for 30 min. The blocking solution was washed off with KPBS-1% Triton and the slides were incubated with both anti-HA and histone méthylation specific antibodies diluted in blocking solution to 1∶300 at 4°C overnight. After washing with KPBS, slides were blocked and incubated with fluorescent-labeled antibodies at 37°C for 2 h. After washing with KPBS thrice, nuclei were stained with 5 µg/mL 4,6-diamidino-2-phenylindole (DAPI), coated with a drop of VECTASHIELD Mounting Medium (H-1000, Vector Laboratories), and then covered with a coverslip followed by confocal microscope (Leica) detection. In vitro histone demethylation assays were performed as previously described. FA-J3NCZ was purified after overexpression with Anti-FLAG M2 magnetic beads according the manufacturer's instruction (Sigma).
(§2) Supplementary file pgen.1003239.s006.tif: Figure S6 Demethylation assays for JMJ703 substitution mutants that have been produced based on the structural data. The mutant names are labeled at the top left corner of each panel. Image panels from left to right are staining by DAPI, anti-HA and anti-methylated histones, respectively. Bar = 10 µm. At least 30 nuclei that expressed JMJ703 per transfection were observed and imaged. (TIF) Click here for additional data file.

H3K4me1 = experiment: H3K4 demethylation assay in tobacco cells of JMJ703 substitution mutants, H3K4me1; format: cell-based; details: mutant expressed transiently in tobacco cells, immunostaining of nuclei, at least 30 nuclei per transfection
Experimental: as §1, §2

H3K4me3 = experiment: H3K4 demethylation assay in tobacco cells of JMJ703 substitution mutants, H3K4me3; format: cell-based; details: mutant expressed transiently in tobacco cells, immunostaining of nuclei, at least 30 nuclei per transfection
Experimental: as §1, §2

H3K4me2 peptide was tested, and the Kd [1] was 15.1 µM and the Kd [2] was 19.3 µM.

With H3K4me0 peptide the Kd [2] was 76.6 µM.

Molecule H3K4me1 peptide has a Kd [1] of 12.6 µM and a Kd [2] of 28.9 µM.

ARTK(Me3)QTARKS [H3K4me3 peptide (ARTKme3QTARKS)] gave a Kd [3] of 30.1 µM and a Kd [4] of 15.9 µM.

B1: A494S: JMJ703 substitution mutant, methylation state-specificity residue (protein, UniProt Q53WJ1 1-1238, looked up, variant A494S)
Lysine-specific demethylase …: MMGVTTTLNEDTEPSIPPGFGPFATLPLWGIHNDAKPAVTHSTPVQALQSIRKDSEECQPSAAVSRSDTPCSTSGTQTCRKSLRNRPPIDYSRFEHISDEDSDVEIVEKDVSSTRRRQQLPKGVLRGCAECSDCQKVIAKWNPAGARRPVLDEAPVFYPTEEEFEDTLKYIESIRPMAEPYGICRIVPPSSWKPPCLLKDKSIWEGSKFSTRVQKVDKLQNRKSSKKGRRGGMMKRRKLAESEENSATAHTQTGMQQSPERFGFEPGPEFTLQTFQKYADDFSKQYFRKDTSMDSVPSVEDIEGEYWRIVEVPTEEIEVIYGADLETGTFGSGFPKLSPETKSDAEDKYAQSGWNLNNLPRLQGSVLSFEGGDISGVLVPWVYVGMCFSSFCWHVEDHHLYSLNYMHWGAPKLWYGVPGKDAVNLESAMRKHLPELFEEQPDLLHNLVTQFSPSLLKSEGVHVYRCVQHEGEFVLTFPRAYHAGFNCGFNCAESVNVAPIDWLPIGHNAVELYREQARKITISHDKLLLGAAREAIRAQWDILFLKRNTADNMRWKSICGADSTIFKALKARIETELVQRKTLGVPAQSRKMDAEFDSIDRECALCYYDLHLSASGCPCCPEKYACLVHAKQLCSCDWDKRFFLFRYDVNELNILADALGGKLSAIHRWGVSDLGLSLSSCVKREKVQDSKTVRRLTDGPRRSYMSQASAVSLVSSSTSNEQKDEGNKIMKIASPQTNNVCPSVEQRKSENISPLKEPCVRNELSCTTNSDSNGLQYNGGLGGHKGSAPGLPVSSSPSFSSNVATRPISTSSVSMKIVQGLVASKSCIQASSRTGDSRSLLGEHHNRSPAMIHDGTNMKSSLESSNNSCRLIASDYNATPCHSSKDQVLVTPGTNASVVTLKDSSQVHSASSQQFVRTGPWTQSASHEASSPSTSALKPSLDPPAMKNLYGGFTQGSAHPGPPSFSNQQPNDGRLQRTSESLPGVEARARGHPTVTAQPALEIHSRNGGAQKGPRIANVVHRFKCSVEPLEIGVVLSGRLWSSSQAIFPKGFRSRVKYFSIVDPIQMAYYISEILDAGMQGPLFMVKLENCPGEVFINLSPTKCWNMVRERLNMEIRRQLNMGKSNLPTLQPPGSVDGLEMFGLLSPPIVQAIWARDRDHICTEYWRSRPHVLIEDPNNRHMLSQGPPLLALRGLIQRANRDELQVLRSLMTNSNNLDDSSRQQAAHIIEEEIAKQLC
In the case of B1, the H3K4me2 demethylation activity (H3K4me2) is reported as “no”, the H3K4me1 demethylation activity (H3K4me1) is reported as “no” and the H3K4me3 demethylation activity (H3K4me3) is reported as “yes”.

B2: G376A: JMJ703 substitution mutant, methyl group-binding residue (protein, UniProt Q53WJ1 1-1238, looked up, variant G376A)
Lysine-specific demethylase …: B1 Lysine-specific demethylase … with G376A, S494A
In the case of B2, the H3K4me2 demethylation activity (H3K4me2) is reported as “no”, the H3K4me1 demethylation activity (H3K4me1) is reported as “no” and the H3K4me3 demethylation activity (H3K4me3) is reported as “no”.

B3: Y383A: JMJ703 substitution mutant, methyl group-binding residue (protein, UniProt Q53WJ1 1-1238, looked up, variant Y383A)
Lysine-specific demethylase …: B1 Lysine-specific demethylase … with Y383A, S494A
In the case of B3, the H3K4me2 demethylation activity (H3K4me2) is reported as “yes”, the H3K4me1 demethylation activity (H3K4me1) is reported as “no” and the H3K4me3 demethylation activity (H3K4me3) is reported as “no”.

B4: E396A: JMJ703 substitution mutant, methyl group-binding residue (protein, UniProt Q53WJ1 1-1238, looked up, variant E396A)
Lysine-specific demethylase …: B1 Lysine-specific demethylase … with E396A, S494A
With B4 the H3K4me2 demethylation activity (H3K4me2) was “no”, the H3K4me1 demethylation activity (H3K4me1) was “no” and the H3K4me3 demethylation activity (H3K4me3) was “no”.

B5: N496A: JMJ703 substitution mutant, methyl group-binding residue (protein, UniProt Q53WJ1 1-1238, looked up, variant N496A)
Lysine-specific demethylase …: B1 Lysine-specific demethylase … with S494A, N496A
For B5, the H3K4me2 demethylation activity (H3K4me2) was “yes”, the H3K4me1 demethylation activity (H3K4me1) was “no” and the H3K4me3 demethylation activity (H3K4me3) was “yes”.

B6: Y321A: JMJ703 substitution mutant, α-ketoglutaric acid-binding residue (protein, UniProt Q53WJ1 1-1238, looked up, variant Y321A)
Lysine-specific demethylase …: B1 Lysine-specific demethylase … with Y321A, S494A
In the case of B6, the H3K4me2 demethylation activity (H3K4me2) is reported as “yes”, the H3K4me1 demethylation activity (H3K4me1) is reported as “no” and the H3K4me3 demethylation activity (H3K4me3) is reported as “yes”.

B7: N404A: JMJ703 substitution mutant, α-ketoglutaric acid-binding residue (protein, UniProt Q53WJ1 1-1238, looked up, variant N404A)
Lysine-specific demethylase …: B1 Lysine-specific demethylase … with N404A, S494A
For B7, the H3K4me2 demethylation activity (H3K4me2) was “yes”, the H3K4me1 demethylation activity (H3K4me1) was “yes” and the H3K4me3 demethylation activity (H3K4me3) was “yes”.

B8: K412A: JMJ703 substitution mutant, α-ketoglutaric acid-binding residue (protein, UniProt Q53WJ1 1-1238, looked up, variant K412A)
Lysine-specific demethylase …: B1 Lysine-specific demethylase … with K412A, S494A
In the case of B8, the H3K4me2 demethylation activity (H3K4me2) is reported as “no”, the H3K4me1 demethylation activity (H3K4me1) is reported as “no” and the H3K4me3 demethylation activity (H3K4me3) is reported as “no”.
